{
  "source": "patent US9267129B2",
  "about": "“Compositions and methods for conferring herbicide resistance” (BEN-GURION UNIVERSITY OF THE NEGEV RESEARCH AND DEVELOPMENT …, priority 2011, dated 2016)",
  "molecules": {"B1": {"name": "Wild-type: Parietochloris incisa acetohydroxyacid synthase (AHAS), SEQ ID NO: 1, expressed as N-terminal hexahistidine-tagged protein (protein, listed as Parietochloris incisa)", "chain": "MQGTMRPTAGALQQTVGCWHVPAGIPHAQQALRGRILPEELKQRCSATKPRAARQSAVTAAKLAEGKAGTPSRSLRQQPAAPQQQQQQQDSNELVALREAAKASLSSPAPAEWVDRFGSEPRKGADILVQCLEREGAFRVFAYPGGASMEIHQALTRSGIIRNILCRHEQGEIFAAEGYAKCTGDVGVCIATSGPGATNLVTGLADAMLDSVPLVAITGQVPRKMIGTDGFQETPIVEVTRQITKHNFLVMDLDDLPRIMKEAFYLARTGRPGPVLVDVPKDIQQQLAVPDWDTPMAISGYMSRLPAPPNPSQLAAVVRALKEAKRPTLYVGGGALDSSAELREFVRLTGIPVAQTLMGLGTFPEEDPLALQMLGMHGTVYANYAVNDSDLLLAFGVRFDDRVTGKLEAFASRACIVHIDIDPAEICKNKEAHIPICADLRASLIALNELLRRDPLPEGAFADWRAAIEAKKQEFPMTFPERDDVIIPQRAIQMLYEETNGEAIISTGVGQHQMWAAQWYQYNEPRRWVTSGGLGSMGFGLPSALGAAAVAYDGTDGRPKKVVVDIDGDGSFLMNCQELATAAVEGLETKIMILNNQHLGMVVQWEDRFYKANRAHTYLGHRANEYHTTLDESHIFPDFVMMAKSCGVPGRRVIKPEELRGAIREMLDTPGPFLLDVMVPHVEHVLPMIPGGGSFKDIITKGDGRDEY", "modifications": "N-terminal hexahistidine tag"}, "B2": {"name": "Mutant: Parietochloris incisa AHAS with Trp605 substituted by Serine (W605S), SEQ ID NO: 2, hexahistidine-tagged (protein, listed as Parietochloris incisa)", "chain": "B1 chain with W605S", "modifications": "hexahistidine tag"}},
  "assay": "AHAS catalytic activity, pyruvate dependence",
  "type": "biochemical, Parietochloris incisa",
  "description": "To overexpress the hexahistidine (6xHis)-tagged PiAHAS genes in E. coli strain JM109, plasmids pQE-WT and pQE-MUT were used. These plasmids were constructed by inserting the BamHI-SalI fragment containing the cloned PiAHAS wt and mutant genes into plasmid pQE30 (Qiagen, Hilden, Germany). These plasmids express PiAHAS fused at its N-terminus to the pQE30 6xHis leader. pQE-WT and pQE-MUT were transformed into E. coli for expression. The transformed cells were grown, IPTG induced, and harvested as described previously (Hill C et al. Purification of Escherichia coli acetohydroxyacid synthase isoenzyme II and reconstitution of active enzyme from its individual pure subunits. Biochem. J. 1997, 327, 891-898). Bacterial cells were disrupted by sonication in a binding buffer with 20 mM imidazol, 0.5 M sodium chloride, 50 mM sodium dihydrogen phosphate (pH 8.0), 20 μM FAD and 50 μl/g cells of protease inhibitor cocktail (Sigma-Aldrich, Israel). After 30 min of centrifugation at 20,000×g, the supernatant was loaded on a 1.5×8 cm column of Ni2+-nitrilotriacetatic acid-agarose (Qiagen) previously washed with the binding buffer. The column was then washed with 80 ml of the binding buffer, and the His-AHAS protein eluted with 0.4 M imidazol in the binding buffer. The fractions were dialyzed against 50 mM potassium phosphate buffer (pH 7.6), containing 20 μM FAD. The protein was concentrated for storage at −20 °C by dialysis against same buffer, containing 50% glycerol. The AHAS catalytic activity was determined as previously described (Bar-Ilan A et al. Binding and activation of thiamin diphosphate in acetohydroxyacid synthase. Biochemistry (N.Y.) 2001, 40, 11946-11954). The reactions were carried for 20 min at 37 °C in 0.1 M potassium phosphate buffer (pH 7.6), containing 10 mM magnesium chloride, 0.1 mM ThDP, 75 μM FAD, 5 mM EDTA, 1 mM DTT with 100 mM pyruvate as substrate, except where otherwise indicated. The activity is expressed in units (U) (1 U=1 μmol of acetolactate formed min^−1). Km for pyruvate and Ki for SMM were determined by varying the concentration of the factor in question. Protein concentration was determined by the dye-binding method of Bradford (Bradford MM. A rapid and sensitive method for the quantitation of microgram quantities of protein utilizing the principle of protein-dye binding. Anal. Biochem. 1976, 72, 248-254), with bovine serum albumin as standard. Km calculations were fit with the program “Sigma-Plot” to Michaelis-Menten equation. For Ki calculations, the lines were fit to equations: V=Vo×Ki/(Ki+[SMM]), for wild-type; V=Vf+(Vo−Vf)×Ki/(Ki+[SMM]), for mutant.\nEnzymatic activity of the wild type and mutant forms of AHAS in the presence of different Pyruvate substrate concentrations was assayed with 6.9 μg/ml of PiAHAS wild-type protein and 11.5 μg/ml of mutant protein (FIG. 5) and the specific activity and Km were calculated.",
  "note": "Substitutions are numbered along the chain they refer to. In names and notes the source's numbering stands.",
  "data": [
    {"molecule": "B1", "values": [
      {"measurement": "Km", "setting": "37° C., pH 7.6", "value": "49.4 ± 2.1", "unit": "mM"},
      {"measurement": "Specific activity", "setting": "37° C., pH 7.6", "value": "3.00 ± 0.05", "unit": "U × mg^−1"},
      {"measurement": "Specific activity", "setting": "purified protein", "value": 3, "unit": "U/mg"}
    ]},
    {"molecule": "B2", "values": [
      {"measurement": "Km", "setting": "37° C., pH 7.6", "value": "71.7 ± 2.9", "unit": "mM"},
      {"measurement": "Specific activity", "setting": "37° C., pH 7.6", "value": "1.46 ± 0.03", "unit": "U × mg^−1"},
      {"measurement": "decrease in affinity to the Pyruvate substrate compared to wild type", "setting": "mutant versus wild type", "value": 2, "unit": "fold"},
      {"measurement": "decrease in specific / enzymatic activity compared to wild type", "setting": "mutant versus wild type", "value": 2, "unit": "fold"}
    ]}
  ]
}
